Experimental data taken from paper PMC4419512.

How the values were obtained:
[1] = biological target: HIV-1 subtype C COT6.15 envelope (Env) on pseudovirus (HIV-1 subtype C)
[2] = biological target: HIV-1 subtype C DU151.2 envelope (Env) on pseudovirus (HIV-1 subtype C)
[3] = biological target: HIV-1 subtype B PVO.4 envelope (Env) on pseudovirus (HIV-1 subtype B)
[4] = biological target: HIV-1 subtype B QH0692.42 envelope (Env) on pseudovirus (HIV-1 subtype B)
[5] = biological target: HIV-1 subtype C CAP206.8 envelope (Env) on pseudovirus (HIV-1 subtype C)
[6] = biological target: HIV-1 subtype B JR-FL envelope (Env) on pseudovirus (HIV-1 subtype B) (UniProt Q75760)
[7] = biological target: HIV-1 subtype C Du179.14 envelope (Env) on pseudovirus (HIV-1 subtype C)
[8] = biological target: HIV-1 subtype C Du156.12 envelope (Env) on pseudovirus (HIV-1 subtype C)
[9] = biological target: HIV-1 subtype B CAAN5342.A2 envelope (Env) on pseudovirus (HIV-1 subtype B)
[10] = biological target: HIV-1 subtype A Q168.a2 envelope (Env) on pseudovirus (HIV-1 subtype A)
[11] = biological target: HIV-1 subtype A Q23.7 envelope (Env) on pseudovirus (HIV-1 subtype A)
[12] = biological target: HIV-1 RF envelope glycoprotein (Env) on virus (HIV-1 (RF)) (UniProt P04579)
[13] = biological target: monomeric, glycosylated, baculovirus-produced HIV-1 IIIB gp120 (HIV-1 (IIIB)); experiment: ITC; lectin (180 μM) in the syringe, gp120 (2.5 μM) in the cell; 55 injections of 5 μl, 600 s spacing, 300 rpm, 30°C; VP-ITC

| Substance | IC50 of neutralisation, single cycle Tzm-bl pseudovirus assay [1] | IC50 of neutralisation, single cycle Tzm-bl pseudovirus assay [2] | IC50 of neutralisation, single cycle Tzm-bl pseudovirus assay [3] | IC50 of neutralisation, single cycle Tzm-bl pseudovirus assay [4] | IC50 of neutralisation, single cycle Tzm-bl pseudovirus assay [5] | IC50 of neutralisation, single cycle Tzm-bl pseudovirus assay [6] | IC50 of neutralisation, single cycle Tzm-bl pseudovirus assay [7] | IC50 of neutralisation, single cycle Tzm-bl pseudovirus assay [8] | IC50 of neutralisation, single cycle Tzm-bl pseudovirus assay [9] | IC50 of neutralisation, single cycle Tzm-bl pseudovirus assay [10] | IC50 of neutralisation, single cycle Tzm-bl pseudovirus assay [11] | Anti-HIV EC50: concentration at which 50% of CEM-SS cells are protected from the cytopathic effects of HIV-1RF infection (XTT assay) [12] | Kd [13] | dH [13] |
| --- | --- | --- | --- | --- | --- | --- | --- | --- | --- | --- | --- | --- | --- | --- |
| 4mGRFT, tandem repeat of four mGRFT (1GS-S) domains joined by Gly-Thr-Gly linkers (designed binder) | 273 pM | 300 pM | 185 pM | 170 pM | 164 pM | 287 pM | 93.4 pM | 88.7 pM | 232 pM | 273 pM | 276 pM | 1.2 pM |  |  |
| 2mGRFT3, tandem repeat of two mGRFT (1GS-S) domains joined by a (Gly-Thr-Gly)3 linker (designed binder) | 2540 pM | 1700 pM | 558 pM | 513 pM | 696 pM | 5770 pM | 144 pM | 61.6 pM | 16900 pM | 5280 pM | 7160 pM | 2.6 pM | 3000 pM | -47.2 kcal/mol |
| 3mGRFT, tandem repeat of three mGRFT (1GS-S) domains joined by Gly-Thr-Gly linkers (designed binder) | 412 pM | 308 pM | 270 pM | 223 pM | 181 pM | 325 pM | 124 pM | 79.4 pM | 326 pM | 331 pM | 432 pM | 1 pM | 3000 pM | -74.4 kcal/mol |
| griffithsin (GRFT), native domain-swapped homodimer (from UniProt P84801 1-121) (natural protein) | 734 pM | 1490 pM | 37 pM | 47.3 pM | 2140 pM | 922 pM | 606 pM | 32.4 pM | 7340 pM | 3800 pM | 1190 pM | 13.8 pM | 8000 pM | -30.4 kcal/mol |
| 2mGRFT, tandem repeat of two mGRFT (1GS-S) domains joined by a Gly-Thr-Gly linker (designed binder) | 1460 pM | 694 pM | 301 pM | 202 pM | 178 pM | 2090 pM | 158 pM | 18.2 pM | 5270 pM | 1550 pM | 7260 pM | 2.7 pM | 5000 pM | -69.6 kcal/mol |
| monomeric griffithsin mGRFT (1GS-S) (from UniProt P84801 16-121) (natural protein) |  |  |  |  |  |  |  |  |  |  |  | 119000 pM | 112000 pM | -35.5 kcal/mol |
